Paper PMC7935953 (2021)

Molecular target: His-LC3A (human, UniProt Q9H492 1-121)
Experiment: ITC

Kd: 20.4 µM
Binder: GSGTWTLVDEG [hEPG5-LIR1 peptide]
